According to patent publication US9518268B2, “Drought tolerant transgenic plants and method of making same” (PURDUE RESEARCH FOUNDATION, priority 2013, dated 2016):

Columns and labels:
Test in all cases: Phosphatase activity assay (pNPP) with purified PP2Cs and PYLs
ABI1 [1] = format: biochemical, Arabidopsis thaliana; conditions: in the presence of 10 μM ABA; ABI1 and PYLs 0.3 μM
Description: (§1) The inhibition by PYL13 is ABA-independent, whereas the inhibition by PYR1 and PYL2 is ABA-induced (FIG. 4B). […] The phosphatase activities of PP2CA, ABI1, and ABI2 were measured in the absence or presence of ABA (1.25 μM), and with or without PYLs. The concentration of PP2Cs and PYLs was 0.3 μM. The A405 value of reaction without PP2C was set as 0% and that of the reaction with PP2C but without ABA and PYLs was set as 100%. Error bars indicate s.e.m. (n=6 for PP2CA and ABI2, and n=3 for ABI1).
(§2) To test the functional significance of potential heterodimer formation between PYL13 and other PYLs, the abilities of PYL1 and PYL2 and the protein complexes PYL13-PYL1 and PYL13-PYL2 to inhibit the phosphatase activity of ABI1 were compared using purified recombinant proteins and the synthetic phosphatase substrate pNPP. […] The phosphatase activity of ABI1 was measured (using pNPP) in the absence or presence of 10 μM ABA, with or without PYLs, and with PYL13-PYL dimers. The concentration of ABI1 and PYLs was 0.3 μM. The A405 value of reaction without ABI1 was set as 0% and that of the reaction with ABI1 but without ABA and PYLs was set as 100%. Error bars indicate s.e.m. (n=6). In the presence of 10 μM ABA, ABI1 phosphatase activity was reduced to 67±6% by PYL1 but only to 88±8% by PYL13-PYL1. In the presence of 10 μM ABA, ABI1 phosphatase activity was reduced to 50±3% by PYL2 but only to 78±10% by PYL13-PYL2.
(§3) Phosphatase activity was measured using the colorimetric substrate p-nitrophenyl phosphate (pNPP, SIGMA). Reactions were performed in a reaction buffer containing 50 mM Tris-HCl, pH 7.5, 25 mM Mg(OAc)2, 2 mM MnCl2, 0.5 mM EGTA, 0.5% β-mercaptoethanol, and 0.5% BSA. ABA and PYLs were added as indicated. The concentration of PP2Cs and PYLs was 0.3 μM. Reactions were initiated by the addition of pNPP to a final concentration of 50 mM. The hydrolysis of pNPP was measured by following the absorbance at 405 nm (A405). Because His-PYL13 is difficult to purify, is prone to degradation, and rapidly loses activity, newly purified PYL13 was used for the phosphatase activity assay.

ABI1 [2] = target: T1, ABI1 (Arabidopsis thaliana, UniProt P49597); format: biochemical; conditions: PP2Cs and PYLs 0.3 μM
T1 construct: GST (N, cleaved yes); made in house; host or cells: Escherichia coli BL21 (DE3.0)
T1 sequence (P49597 1-434): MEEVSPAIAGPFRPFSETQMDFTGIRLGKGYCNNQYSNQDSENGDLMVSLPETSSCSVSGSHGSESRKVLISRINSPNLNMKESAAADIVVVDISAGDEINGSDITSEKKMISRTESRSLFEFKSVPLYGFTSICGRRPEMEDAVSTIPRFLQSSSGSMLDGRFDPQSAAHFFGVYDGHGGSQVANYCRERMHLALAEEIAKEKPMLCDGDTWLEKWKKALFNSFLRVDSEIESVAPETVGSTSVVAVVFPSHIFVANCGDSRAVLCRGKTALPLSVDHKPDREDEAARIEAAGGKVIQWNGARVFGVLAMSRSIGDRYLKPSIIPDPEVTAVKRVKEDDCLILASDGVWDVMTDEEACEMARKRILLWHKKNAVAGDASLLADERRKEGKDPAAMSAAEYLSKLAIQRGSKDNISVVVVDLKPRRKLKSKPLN
Description: as §1, §2, §3

ABI2 = target: T2, ABI2 (Arabidopsis thaliana, UniProt O04719); format: biochemical; conditions: PP2Cs and PYLs 0.3 μM
T2 construct: GST (N, cleaved yes); made in house; host or cells: Escherichia coli BL21 (DE3.0)
T2 sequence (O04719 1-423): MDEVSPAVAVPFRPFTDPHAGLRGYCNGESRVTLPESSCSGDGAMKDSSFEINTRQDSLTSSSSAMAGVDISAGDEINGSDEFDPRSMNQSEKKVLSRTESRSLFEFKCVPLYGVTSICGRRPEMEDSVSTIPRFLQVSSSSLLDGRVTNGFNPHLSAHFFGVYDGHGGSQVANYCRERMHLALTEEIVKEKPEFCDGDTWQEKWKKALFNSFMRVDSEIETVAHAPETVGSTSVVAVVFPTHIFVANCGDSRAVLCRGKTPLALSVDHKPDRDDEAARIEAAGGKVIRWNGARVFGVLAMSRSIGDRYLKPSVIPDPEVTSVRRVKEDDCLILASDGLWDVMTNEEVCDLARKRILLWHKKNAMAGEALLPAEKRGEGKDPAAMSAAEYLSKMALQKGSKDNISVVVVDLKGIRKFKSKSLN
Description: as §1, §3

PP2CA = target: T3, PP2CA (Arabidopsis thaliana, UniProt P49598); format: biochemical; conditions: PP2Cs and PYLs 0.3 μM
T3 construct: GST (N, cleaved yes); made in house; host or cells: Escherichia coli BL21 (DE3.0)
T3 sequence (P49598 1-399): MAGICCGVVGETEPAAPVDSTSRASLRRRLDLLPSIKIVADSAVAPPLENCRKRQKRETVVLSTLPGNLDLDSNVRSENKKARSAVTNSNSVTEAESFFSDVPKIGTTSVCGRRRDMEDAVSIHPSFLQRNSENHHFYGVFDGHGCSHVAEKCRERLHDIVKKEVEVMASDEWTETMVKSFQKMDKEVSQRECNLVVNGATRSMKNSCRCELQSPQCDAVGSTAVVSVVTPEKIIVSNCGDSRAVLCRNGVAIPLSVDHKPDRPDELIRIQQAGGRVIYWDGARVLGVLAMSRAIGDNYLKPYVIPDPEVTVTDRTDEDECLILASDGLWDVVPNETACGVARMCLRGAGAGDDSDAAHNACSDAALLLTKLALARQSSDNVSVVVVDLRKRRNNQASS
T3 sequence (Q9SN51 1-164 partner): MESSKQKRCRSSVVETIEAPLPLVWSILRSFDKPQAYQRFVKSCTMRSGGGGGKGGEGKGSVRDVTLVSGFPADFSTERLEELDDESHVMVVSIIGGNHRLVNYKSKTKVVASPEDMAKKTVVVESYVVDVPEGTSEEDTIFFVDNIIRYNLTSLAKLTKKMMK
Description: as §1, §3

Molecule | ABI1 phosphatase activity reduced to (ABI1 [1]) [%] | ABI1 phosphatase activity reduced to (ABI1 [2]; with 1.25 μM ABA) [%] | ABI1 phosphatase activity reduced to (ABI1 [2]; without ABA) [%] | ABI2 phosphatase activity reduced to (ABI2; with 1.25 μM ABA) [%] | ABI2 phosphatase activity reduced to (ABI2; without ABA) [%] | PP2CA phosphatase activity reduced to (PP2CA; with 1.25 μM ABA) [%] | PP2CA phosphatase activity reduced to (PP2CA; without ABA, PP2C without ABA and PYLs = 100%) [%]
PYL2: Arabidopsis thaliana PYL family ABA receptor protein PYL2, AT2G26040 | 50±3 |  |  |  |  |  | 
PYL13: Arabidopsis thaliana PYR/PYL/RCAR family protein PYL13, SEQ ID NO: 1 (protein, listed as Arabidopsis thaliana) MESSKQKRCRSSVVETIEAPLPLVWSILRSFDKPQAYQRFVKSCTMRSGGGGGKGGEGKGSVRDVTLVSGFPADFSTERLEELDDESHVMVVSIIGGNHRLVNYKSKTKVVASPEDMAKKTVVVESYVVDVPEGTSEEDTIFFVDNIIRYNLTSLAKLTKKMMK |  | 75±3 | 75±3 | 93±6 | 89±8 | 54±5 | 55±5
